Columns and labels:
Test in all cases: ITC
Conditions in all cases: 250 uM protein into 40 uM siRNA, unit of K not stated
[1] = system: DRBD (double-stranded RNA binding domain)
[2] = system: DRBD-PTD chimera (RND-DRBD)
[3] = system: PTD (protein transduction domain peptide)

Luciferase siRNA
Ka ([1]; Sorensen's phosphate buffer, enthalpy 1998.83 kJ/mol): 15200 | Ka ([1]; deionized water, enthalpy 201.18 kJ/mol): 10500 | Ka ([2]; Sorensen's phosphate buffer, enthalpy 61.51 kJ/mol): 2.12e+07 | Ka ([2]; deionized water, enthalpy 98.92 kJ/mol): 1e+10 | Ka ([3]; Sorensen's phosphate buffer, enthalpy 14.03 kJ/mol): 1.04e+07 | Ka ([3]; deionized water, enthalpy 29.83 kJ/mol): 1e+10

From patent US20140335192
